Experimental findings from patent US20220193133A1 (CENTURY THERAPEUTICS, published 2022) are described below.

A word on the Kd: it is the constant that tells how readily two partners part at equilibrium. Read a high Kd as a looser complex. What is called koff is the first-order rate constant of dissociation. Read a high koff as a short-lived complex. A word on the kon: it is a measure of how fast the partners come together. A lower kon goes with slower complex formation. What is called EC50 (read off the curve) is the concentration giving half of the maximal effect. A high value points to weaker potency.

Test [1] addresses T1, D04 protein (humanized D04 VHH as ELISA antigen).
T1 construct: Panning used biotinylated D04-Fc; the ELISA legend says only 'D04 protein'
Briefly: periplasmic extract ELISA, absorbance 450 nm, single point. Background: In an ELISA, binding on a coated surface is turned into a signal by an enzyme label.

For test [2], the target named is T2, humanized D04 VHH CAR (hyLYSO_CW_P01_D04) on Nurkat cells or primary T cells.
T2 construct: also called D04 (p1648); P1650
The experiment in a line: flow cytometry, VHH-Fc on CAR Nurkat cells, 3-fold dilutions 50 to 0.02 nM, anti-Fc APC, %Fc positive cells. The source says:
(§1) […] Fc-fusion protein was detected via anti-Fc APC, and the percentage of cells that were positive for this detection method are shown. […] Controls include (i) no VHH-Fc added and (ii) the anti-VHH cocktail detection reagent (far right). The samples shown in the graphs for each protein appear in the order as specified in the legend.
On the technique in general: A flow cytometer gives signals particle by particle.

The target of test [3] is T3, B11 protein (humanized B11 VHH as ELISA antigen).
T3 construct: Panning used B11-Fc; the ELISA legend says only 'B11 protein'
Briefly: periplasmic extract ELISA, absorbance 450 nm, single point.

Test [4] addresses T4, humanized B11 VHH CAR (hyLYSO_CW_P01_B11) on Nurkat cells.
T4 construct: also called B11 (p1649); P1649
Briefly: flow cytometry, VHH-Fc on CAR Nurkat cells, 3-fold dilutions 50 to 0.02 nM, anti-Fc APC, %Fc positive cells.
Description: as §1

The target of test [5] is T5, B11-his tagged VHH (humanized B11).
T5 construct: also called B11-his protein; B11 his-tagged protein
The experiment in a line: Octet (BLI), anti-idiotype VHH-Fc vs his-tagged VHH; table title prints D04-his, its footnote prints B11-his.

Test [6] concerns the target T6, D04-his tagged VHH (humanized D04).
T6 construct: also called LysoD04.His; D04 his-tagged protein
The experiment in a line: Octet (BLI), anti-idiotype VHH-Fc vs his-tagged VHH; table title prints B11-his, paragraph 353 ties these values to D04. Background: BLI is a label-free optical method that tracks binding on a fibre tip over time.

Positions count from the first letter of the chain named.

B1: huD04_CNTY2_F12 anti-idiotype VHH (periplasmic extract) (VHH)
VHH: EVQLLESGGGLVQPGGSLRLSCAASGFTFSSNAMGWYRQAPGKEREFVSSISSGRSTTYADSVKGRFTISRDNSKNTLYLQMNSLRAEDTAVYYCAAHGTKYKWTRARLRSARQKQLETYRYWGQGTQVTVSS
notes: Screened as periplasmic extract; also called VHH of AMD74
For B1, the binding result in test [1] is given as “binds”.

B2: AMD74 (huD04_CNTY2_F12 anti-idiotype VHH IgG1-Fc fusion) (Fc fusion)
chain: B1 VHH
notes: not shown: IgG1 Fc
Regarding B2, the binding result in test [2] is given as “binds”.

B3: huD04_CNTY2_B06 anti-idiotype VHH (periplasmic extract) (VHH)
VHH: EVQLLESGGGLVQPGGSLRLSCAASGFTFNRYSMGWYRQAPGKERELVSAISSGGSGYYADSVKGRFTISRDNSKNTLYLQMNSLRAEDTAVYYCAIQDYSRIWEYIALDRRRSYYGMDYWGQGTQVTVSS
notes: Screened as periplasmic extract; also called VHH of AMD79
Take B3: the binding result in test [3] was “no binding”.

B4: AMD79 (Fc fusion)
VHH-Fc: B3 VHH
notes: also called huD04_CNTY2_B06 anti-idiotype VHH IgG1-Fc fusion
Regarding B4, the binding result in test [4] was “no binding (tested: 50 nM)”.

B5: AMD82 (huD04_CNTY1_B12 anti-idiotype VHH IgG1-Fc fusion) (Fc fusion)
chain: EVQLLESGGGLVQPGGSLRLSCAASGRTSSNYVMGWYRQAPGKEREGVSAITSGGSTYYADSVKGRFTISRDNSKNTLYLQMNSLRAEDTAVYYCAANLYSRTGAYDYWGQGTQVTVSS
notes: not shown: IgG1 Fc
B5: the Response in test [5] was -0.0225. In test [6], this molecule had a Kd of 125 nM, a Response of 0.172, a koff of 0.0868 s⁻¹ and a kon of 697000 M⁻¹ s⁻¹. Besides, the binding result in test [4] is “no binding (tested: 50 nM)”. The “EC50 (read off the curve)” value in test [2] is roughly 6 nM.

B6: AMD67 (Fc fusion)
VHH-Fc: EVQLLESGGGLVQPGGSLRLSCAASGRTFSSGAMGWYRQAPGKERELVSAISNRGSTVYADSVKGRFTISRDNSKNTLYLQMNSLRAEDTAVYYCAADRNPSSAGAGVAAYRLIARFNYWGQGTQVTVSS
notes: also called huD04_CNTY2_F09 anti-idiotype VHH IgG1-Fc fusion
In the case of B6, the binding result in test [4] was “no binding (tested: 50 nM)”.

B7: huD04_CNTY2_C03 anti-idiotype VHH (periplasmic extract) (VHH)
VHH: EVQLLESGGGLVQPGGSLRLSCAASGLTFSRYAMGWYRQAPGKERELVSAISSRRSTYYADSVKGRFTISRDNSKNTLYLQMNSLRAEDTAVYYCAADYRLTSLERARYASASITYDYWGQGTQVTVSS
notes: Screened as periplasmic extract; also called VHH of AMD78
For the molecule B7, the binding result in test [3] is on record as “no binding”.

B8: AMD71 (huB11_CNTY3+4_A02 anti-idiotype VHH IgG1-Fc fusion) (Fc fusion)
chain: EVQLLESGGGLVQPGGSLRLSCAASGRTYTGSAMGWYRQAPGKERELVSAISTGGETYYADSVKGRFTISRDNSKNTLYLQMNSLRAEDTAVYYCAAGYVGLPYTYRPATSRRGYTYWGQGTQVTVSS
notes: not shown: IgG1 Fc
In test [5], B8 had a dissociation constant (Kd) of 515 nM, a Response of 0.0566, a koff of 0.14 s⁻¹ and a kon of 273000 M⁻¹ s⁻¹. Besides, the binding result in test [2] is on record as “no binding (tested: 50 nM)”.

B9: AMD75 (Fc fusion)
VHH-Fc: EVQLLESGGGLVQPGGSLRLSCAASGFAFSDYVMGWYRQAPGKEREFVSAIRSTTSTYYADSVKGRFTISRDNSKNTLYLQMNSLRAEDTAVYYCAADVWSGYEYDYWGQGTQVTVSS
notes: also called huB11_CNTY1_E11 anti-idiotype VHH IgG1-Fc fusion
In the case of B9, the binding result in test [2] was “no binding (tested: 50 nM)”.

B10: AMD76 (Fc fusion)
VHH-Fc: B9 VHH-Fc with F27L, D31S, V33A, A50V, R52S, S53G, T55G, S56E, Y58L
notes: also called huB11_CNTY1_B11 anti-idiotype VHH IgG1-Fc fusion
Regarding B10, the binding result in test [2] is “no binding (tested: 50 nM)”.

B11: AMD87 (huD04_CNTY1_D11 anti-idiotype VHH IgG1-Fc fusion) (Fc fusion)
chain: EVQLLESGGGLVQPGGSLRLSCAASGSTFSYYYMGWYRQAPGKERELVSAISSGGSIYYADSVKGRFTISRDNSKNTLYLQMNSLRAEDTAVYYCARRTYYGDEADYWGQGTQVTVSS
notes: not shown: IgG1 Fc
In test [5], B11 yielded a Response of -0.0301. For the same molecule, the binding result in test [4] was “no binding (tested: 50 nM)”.

B12: huD04_CNTY2_F04 anti-idiotype VHH (periplasmic extract) (VHH)
VHH: EVQLLESGGGLVQPGGSLRLSCAASGRTFSSYGMGWYRQAPGKERELVSAISNRGSTYYADSVKGRFTISRDNSKNTLYLQMNSLRAEDTAVYYCAASPARVGVSGHSSSRRSYYGYSYDYWGQGTQVTVSS
notes: Screened as periplasmic extract; also called VHH of AMD70
Consider B12, for which the binding result in test [1] was “binds”.

B13: AMD70 (Fc fusion)
VHH-Fc: B12 VHH
notes: also called huD04_CNTY2_F04 anti-idiotype VHH IgG1-Fc fusion
With B13, the binding result in test [2] is listed as “binds”.

B14: AMD69 (huD04_CNTY2_E03 anti-idiotype VHH IgG1-Fc fusion) (Fc fusion)
chain: EVQLLESGGGLVQPGGSLRLSCAASGLTYTGYAMGWYRQAPGKERELVSAISSRSSIYYADSVKGRFTISRDNSKNTLYLQMNSLRAEDTAVYYCAAGRPVALGSWRRTATWSAGLGAEYAYWGQGTQVTVSS
notes: not shown: IgG1 Fc
As for B14, the binding result in test [4] is “no binding (tested: 50 nM)”. In test [2], the concentration giving a half-maximal response (EC50 (read off the curve)) was roughly 4 nM.

B15: huD04_CNTY2_E03 anti-idiotype VHH (periplasmic extract) (VHH)
VHH: B14 chain
notes: Screened as periplasmic extract; also called VHH of AMD69
With B15, the binding result in test [3] is “no binding”.

B16: AMD73 (Fc fusion)
VHH-Fc: EVQLLESGGGLVQPGGSLRLSCAASGFTFSSYSIGWYRQAPGKERELVSVISSGGSTYYADSVKGRFTISRDNSKNTLYLQMNSLRAEDTAVYYCAASDWSYSWITYTGTWRLYEYWGQGTQVTVSS
notes: also called huB11_CNTY3+4_A01 anti-idiotype VHH IgG1-Fc fusion
For B16, in test [2], the binding result is given as “no binding (tested: 50 nM)”.

B17: huD04_CNTY2_D04 anti-idiotype VHH (periplasmic extract) (VHH)
VHH: EVQLLESGGGLVQPGGSLRLSCAASGLTFSGVCMGWFRQAPGKEREGVSAIYSSGSTYYADSVKGRFTISRDNSKNTLYLQMNSLRAEDTAVYYCAADRIPDLGEPCIGTTNLARTYNYWGQGTQVTVSS
notes: Screened as periplasmic extract; also called VHH of AMD81
B17: in test [3], the binding result was “no binding”.

B18: AMD81 (Fc fusion)
VHH-Fc: B17 VHH
notes: also called huD04_CNTY2_D04 anti-idiotype VHH IgG1-Fc fusion
Take B18: the binding result in test [4] is reported as “no binding (tested: 50 nM)”.

B19: huD04_CNTY2_H12 anti-idiotype VHH (periplasmic extract) (VHH)
VHH: EVQLLESGGGLVQPGGSLRLSCAASGSIFSSDVMGWYRQAPGKERELVSAISSGGSTRYADSVKGRFTISRDNSKNTLYLQMNSLRAEDTAVYYCAATMGKSKTNRRNYGTWRYGAYAYWGQGTQVTVSS
notes: Screened as periplasmic extract; also called VHH of ABD72 (AMD72)
Take B19: in test [1], the binding result is given as “binds”.

B20: AMD72 (huD04_CNTY2_H12 anti-idiotype VHH IgG1-Fc fusion) (Fc fusion)
chain: B19 VHH
notes: also called ABD72; not shown: IgG1 Fc
As for B20, in test [2], the binding result is reported as “binds”.
